Measurements taken from patent US20250270280A1.

Experiments:
[1] = molecular target: PA4C7K/H2-D^b (mouse; human)
[2] = molecular target: PA4C7A/H2-D^b (mouse; human)
[3] = molecular target: PA4C7L/H2-D^b (mouse; human)
[4] = molecular target: PA/H2-D^b (influenza Polymerase Acidic peptide … presented by H2-D^b) (mouse; human)
[5] = molecular target: PA4C/H2-D^b (PA peptide with cysteine at position 4 presented by H2-D^b) (mouse; human)
[6] = molecular target: PA4C7K/H2-D^b (mouse; human); remark: listed apart in the source
[7] = molecular target: PA/H2-D^b (influenza Polymerase Acidic peptide … presented by H2-D^b) (mouse; human); remark: listed apart in the source
[8] = molecular target: PA4C/H2-D^b (PA peptide with cysteine at position 4 presented by H2-D^b) (mouse; human); remark: listed apart in the source
[9] = molecular target: PA4C7A/H2-D^b (mouse; human); remark: listed apart in the source
[10] = molecular target: PA4C7L/H2-D^b (mouse; human); remark: listed apart in the source

6218 TCR expressed on cells
IL-2 in supernatant (ELISA), 5KC T cells with CD8αβ and the TCR + DC2.4 cells + graded peptide: EC50 [left graph] [1]: > 50000 nM | IL-2 in supernatant (ELISA), 5KC T cells with CD8αβ and the TCR + DC2.4 cells + graded peptide: EC50 [left graph] [2]: > 50000 nM | IL-2 in supernatant (ELISA), 5KC T cells with CD8αβ and the TCR + DC2.4 cells + graded peptide: EC50 [left graph] [3]: > 50000 nM | IL-2 in supernatant (ELISA), 5KC T cells with CD8αβ and the TCR + DC2.4 cells + graded peptide: EC50 [panel PA] [4]: 50 nM | IL-2 in supernatant (ELISA), 5KC T cells with CD8αβ and the TCR + DC2.4 cells + graded peptide: EC50 [panel PA4C] [5]: 49 nM | tetramer MFI / TCRβ MFI, normalized to 6218 TCR-PA/H2-D^b [6]: 0.33 | tetramer MFI / TCRβ MFI, normalized to 6218 TCR-PA/H2-D^b [7]: 1 | tetramer MFI / TCRβ MFI, normalized to 6218 TCR-PA/H2-D^b [8]: 1.03 | tetramer MFI / TCRβ MFI, normalized to 6218 TCR-PA/H2-D^b [9]: 0.16 | tetramer MFI / TCRβ MFI, normalized to 6218 TCR-PA/H2-D^b [10]: 0.03
